Experimental data as given in patent publication US20100229252, “MEGANUCLEASE VARIANTS CLEAVING A DNA TARGET SEQUENCE FROM THE HUMAN HEMOGLOBIN BETA GENE AND USES THEREOF” (CELLECTIS, published 2010).
Substitutions are numbered along the chain they refer to.

B1: HBB8 (dsDNA)
DNA 1: CTGACTCCTGTGGAGAAGTCTG
DNA 2: CAGACTTCTCCACAGGAGTCAG
B2: HBB6 (dsDNA)
DNA 1: CTGACTCCTGAGGAGAAGTCTG
DNA 2: CAGACTTCTCCTCAGGAGTCAG

Key:
Assay in all cases: cell_activity; CHO extrachromosomal LacZ assay
[1] = biological target: T1, I-CreI heterodimer HBB8.3_A3 / HBB8.4_C4 (Chlamydomonas reinhardtii, UniProt P05725;P05725 SEQ:1-167,SEQ:1-167)
T1 chain 1: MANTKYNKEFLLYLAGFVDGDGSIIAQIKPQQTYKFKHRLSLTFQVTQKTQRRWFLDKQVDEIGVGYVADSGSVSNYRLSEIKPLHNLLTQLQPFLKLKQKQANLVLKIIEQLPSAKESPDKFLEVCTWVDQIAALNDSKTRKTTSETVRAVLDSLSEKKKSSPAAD
T1 chain 2: T1 chain 1 with G20S, Q31N, T33S, Y34V, S41Q, Q45D, Q59L, N76K, L88F

[2] = biological target: T2, I-CreI heterodimer HBB8.3_K3 / HBB8.4_D4 (Chlamydomonas reinhardtii, UniProt P05725;P05725 SEQ:1-167,SEQ:1-167)
T2 chain 1: T1 chain 1 with G20S, Q45K, Q59L, A69Y, R78I, L88F
T2 chain 2: T1 chain 1 with Q31N, T33S, Y34V, R39H, S41Q, Q45D, Q59L, N76K

[3] = biological target: T3, I-CreI heterodimer HBB8.3_B3 / HBB8.4_B4 (Chlamydomonas reinhardtii, UniProt P05725;P05725 SEQ:1-167,SEQ:1-167)
T3 chain 1: T1 chain 1 with Q45K, Q59L, A69Y, R78Y, L88F, V106A, L153Q
T3 chain 2: T1 chain 1 with G20S, Q31N, T33S, Y34T, S41Q, Q45D, Q59L, N76K, L88F

[4] = biological target: T4, I-CreI heterodimer HBB8.3_D3 / HBB8.4_A4 (Chlamydomonas reinhardtii, UniProt P05725;P05725 SEQ:1-167,SEQ:1-167)
T4 chain 1: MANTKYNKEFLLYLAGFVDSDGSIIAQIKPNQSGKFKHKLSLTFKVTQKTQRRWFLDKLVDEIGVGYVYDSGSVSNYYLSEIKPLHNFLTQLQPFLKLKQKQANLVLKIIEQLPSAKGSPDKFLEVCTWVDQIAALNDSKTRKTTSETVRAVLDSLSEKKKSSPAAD
T4 chain 2: T1 chain 1 with Q31N, T33S, Y34V, R39H, S41Q, Q45D, Q59L, N76K, Q132R

[5] = biological target: T5, I-CreI heterodimer HBB8.3_H3 / HBB8.4_D4 (Chlamydomonas reinhardtii, UniProt P05725;P05725 SEQ:1-167,SEQ:1-167)
T5 chain 1: T4 chain 1 with G118E, I133V
T5 chain 2: T1 chain 1 with Q31N, T33S, Y34V, R39H, S41Q, Q45D, Q59L, N76K

[6] = biological target: T6, I-CreI heterodimer HBB8.3_L3 / HBB8.4_A4 (Chlamydomonas reinhardtii, UniProt P05725;P05725 SEQ:1-167,SEQ:1-167)
T6 chain 1: T1 chain 1 with G20S, Q45K, Q59L, A69Y, R78Q, L88F
T6 chain 2: T1 chain 1 with Q31N, T33S, Y34V, R39H, S41Q, Q45D, Q59L, N76K, Q132R

[7] = biological target: T7, I-CreI heterodimer HBB8.3_C3 / HBB8.4_D4 (Chlamydomonas reinhardtii, UniProt P05725;P05725 SEQ:1-167,SEQ:1-167)
T7 chain 1: T4 chain 1 with S20G, G118E, I133V
T7 chain 2: T1 chain 1 with Q31N, T33S, Y34V, R39H, S41Q, Q45D, Q59L, N76K

| Binder | activity [1] | activity [2] | activity [3] | activity [4] | activity [5] | activity [6] | activity [7] |
| --- | --- | --- | --- | --- | --- | --- | --- |
| B1 | 1.56 absorbance units | 1.93 absorbance units | 2.29 absorbance units | 1.53 absorbance units | 2.1 absorbance units | 2.32 absorbance units | 0.72 absorbance units |
| B2 | 0.68 absorbance units | 1.63 absorbance units | 1.21 absorbance units | 1.23 absorbance units | 1.84 absorbance units | 1.96 absorbance units | 0.37 absorbance units |
